Data taken from article PMC7891125 (Cell, 2021).

Target: SARS-CoV-2 spike on intact virus (SARS-CoV-2/human/AUS/VIC01/2020) (SARS-CoV-2, isolate …, strain)
Test: cell-based or functional assay

B1: mAb 159 (antibody, V domains shown)
VH: EVQLVESGGGVVQPGRSLRLSCAASGFTFSSYGMHWVRQAPGKGLEWVALISYDGGNRYYADSVKGRFTISRDNSKNTLYLQMNRLRAEDTAMYYCAKDRDDGWDWYYFMDVWGKGTTVTVSS
VL: DIQLTQSPGTLSLSPGERATLSCRASQSISGNYLAWYQHKPGQAPRLLIYGASTRATGIPDRFSGSGSGTDFTLTISRLEPEDFAVYYCQQYGSSYTFGQGTKVEIK
Q: For B1, which “FRNT, neutralisation of authentic SARS-CoV-2 on Vero cells, IC50” value is on record?
A: The value was 5 ng/mL.
